B1: ZNF207 (parent)
chain: FQPQPVQPQQGYIPPMAQPGLPPV
B2: PTPN9 (parent)
chain: ILFSLPPALDWDSVHVPGPHAMTI

Variants of: B1
Assay: protein stability index of a GFP-peptide fusion (GPS, HEK-293T) (PSI 1-6); higher = more stable
Details: c terminus: a fixed tail appended
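Note: lentivirally expressed fusions sorted by FACS into six bins by GFP to DsRed ratio, PSI derived from sequencing read proportions per bin multiplied by bin number.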

Protein stability index of substitutions, site by site:
Q2: W 2.54, M 3.13, K 3.54, F 3.18, Y 2.92, N 3.66, G 3.61, C 2.18, L 3.49, D 4.03, V 2.51, I 1.9, R 3.46, E 3.98, S 3.16
V6: L 3.06, G 3.1, C 2.89, R 2.92, K 3.08, E 3.61, Y 2.75, F 2.19, D 3.26, S 3.19, W 2.62, N 2.86, M 2.71, I 2.96
P5: G 3.45, E 3.62, S 3.18, Q 2.99, A 3.22, F 2.33, R 2.58, K 3.17, D 3.18, V 2.57, C 2.29, H 3.15, W 1.62, N 2.8, M 2.61, T 2.62, L 2.88, I 2.63, Y 2.59
Q4: L 2.88, D 3.01, K 2.92, E 3.58, G 2.71, N 3.43, R 2.78, W 1.81, V 3.12, Y 1.83, F 2.42, S 3.21, C 3.01, I 2.31, M 2.72
P8: L 3.19, Q 2.95, F 2.88, D 3.32, C 2.54, N 3.03, E 3.22, R 2.61, H 2.89, G 2.96, M 2.47, I 3.1, A 3.27, K 3.15
Q7: H 2.82, G 2.78, W 2.25, C 2.88, K 3.04, R 2.83, Y 2.5, D 3.26, V 3.63, L 3.04, S 3.5, M 3.21, I 3.29, F 2.72, E 2.98
F1: K 4.37, M 3.9, G 4.37, R 4, T 3.5, Y 3.61, D 4.47, N 4.33, I 3.9, A 4.29, C 3.07, L 4.03, S 4.38, W 3.26, V 3.91, Q 4.18, H 4.06, E 4.36
P3: E 3.94, V 3.52, K 3.04, H 3.8, I 2.67, A 3.48, N 3.55, M 3.38, Q 3.31, T 3.95, R 3.25, L 3.2, F 2.49, D 3.62, S 3.73, Y 3.13, C 3.47, W 2.26, G 3.8

Variants of: B2
Assay: as above
Details: c terminus: a fixed tail appended

Protein stability index of substitutions, site by site:
G18: L 4.77, M 2.48, I 3.29, Q 3.62, V 2.36, W 3.41, K 1.61, E 2.12, A 3.84, D 1.85, N 2.76, H 2.69, S 2.4, R 2.19, C 1.85
V16: M 3.21, A 1.93, W 2.95, T 3.33, G 1.99, Q 1.81, L 2.68, K 2.54, C 3.24, F 2.42, R 2.68, I 3.19, D 2.27, S 3.71, H 2.2, N 1.74, E 1.38
P17: L 2.79, R 2.87, H 1.42, G 1.94, W 4.48, C 1.49, Q 2.94, M 3.11, K 2.49, F 3.17, E 2.47, T 2.02, N 2.71, A 2.78, S 2.82, I 2.67, D 2.21
D12: W 2.79
T23: F 2.25, H 1.88, P 1.2, E 2.33, K 2.87, N 3.27, V 4.05, R 3.03, Y 2.69, D 2.6, M 4.43, S 2.4, C 3.21, W 2.7, Q 2.73, L 1.76, I 2.96, G 3.89, A 1.49
A21: I 3.19, S 3.61, W 1.23, Y 3.24, V 4.21, R 1.86, N 1.75, K 3.13, L 2.86, D 2.71, G 2.96, Q 2.63, P 2.84, H 2.88, M 2.59, C 3.09, T 2.35, E 2.64
H20: Y 3.11, N 2.59, M 2.88, I 2.93, K 2.76, L 2.79, D 2.29, F 3.16, P 1.82, S 2.48, Q 2.31, T 2.16, R 2.12, E 1.59, C 2.58, A 2.01, G 2.69
I24: A 1.55, W 3.21, M 2.69, R 1.71, H 1.63, G 2.29, V 2.31, L 1.99, Y 1.73, T 1.97, P 1.85, E 1.69, C 2.43, K 2.06, F 3.71, N 1.71, S 1.57, Q 2.71, D 1.83
H15: G 2.83, S 1.85, F 2.99, Y 3.15, V 3.57, E 2, K 2.48, L 4.13, D 2.08, R 1.44, Q 1.81, A 3.31, P 3.2, C 2.36, I 2.88, T 2.94
V14: N 2.41, D 1.5, S 2.17, M 3.43, R 2.75, K 1.66, I 2.09, G 2.1, E 1.95, L 3.32, C 2.02, Q 2.57, F 4.29, H 2.43, T 2.38, Y 2.26
M22: P 1.77, R 1.86, V 2.64, N 1.39, D 1.91, H 1.24, Q 2.04, S 1.82, W 3.35, K 1.39, G 1.67, E 2.55, F 1.73, I 2.93, A 2.35, L 2.77, T 1.75
S13: K 2.36, P 2.4, I 3.25, N 1.81, M 2.1, L 2.65, Y 3.24, A 1.88, G 2.02, V 2.03, D 2.79, Q 2.06, R 3.77, T 2.42
P19: H 2.46, K 2.02, W 2.19, T 1.89, A 2.77, F 3.89, M 2.77, V 3.51, I 2.37, L 2.44, S 2.48, C 2.95, R 2.65, N 2.89, D 2.1, E 2.35, G 2.97, Q 2.55, Y 3.1

Source: the supplement of paper PMC10567573
